Assay results published in the RNAGym collection of RNA variant scans (doi:10.1073/pnas.2313332121).
Fewer inactive variants are shown than the library holds.

B1: TPR 5TU (parent)
chain: GGAUCUUCUCGAUCUAACAAAAAAGACAAAUCUGCCACAAAGCUUGAGAGCAUCUUCGGAUGCAGAGGCGGCAGCCUUCGGUGGCGCGAUAGCGCCAACGUUCUCAACUAUGACACGCAAAACGCGUGCUCCGUUGAAUGGAGUUUAUCAUG

Variants of: B1
Experiment: polymerase ribozyme fitness, log enrichment relative to wild type (log ratio); higher = more active; in vitro selection for triplet polymerase activity
How it was run: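 For each subunit of a heterodimeric triplet polymerase ribozyme, a mutant library was built by PCR and transcribed, then taken through a single in vitro selection round in triplicate. Selection involved annealing to a biotinylated primer, the partner subunit and triplets, incubation frozen at −7 °C, gel excision of extended constructs, capture on streptavidin beads and RT-PCR. Genotypes were retained after Illumina sequencing of inputs and outputs only with ≥10 input reads and ≥1 read in each output. Fitness is defined as the logarithm of a genotype's enrichment relative to wild-type enrichment, using inverse-variance-weighted averages across replicates, with the logarithm taken to base 2.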

A19U A29U A39G U44G C85U G143U and C18U A41C C72U C93G U104G cannot be ordered by “polymerase ribozyme fitness (log ratio)” value: at most -4.2 for the first, at most -4.2 for the second.

Going from A19G G59U G84U C105G to A19U A40G G124A, the “polymerase ribozyme fitness (log ratio)” value falls from -3.78 to -4.11.

A19U A28U G67C U82A C87A A122C U127C U145C and C18G U44G U55G G58C C93A cannot be ordered by “polymerase ribozyme fitness (log ratio)” value: at most -4.2 for the first, at most -4.2 for the second.

First: C18G C93U G143U
Second: C18G G83C C85U C96G A115C C116G U134A
The “polymerase ribozyme fitness (log ratio)” value of the first is higher: -3.08 for the first, at most -4.2 for the second.

First: A19C A41C G48C C87U A91C A115C A122U G136C U145A
Second: C18U A22G A49C G86A C131G
The “polymerase ribozyme fitness (log ratio)” value of the first is lower: at most -4.2 for the first, -4.14 for the second.

Going from A19G G50A G67A A91U C93A to C18U A52U, the “polymerase ribozyme fitness (log ratio)” value rises from at most -4.2 to -1.92.

Going from A19G U109G U139C U144C U148C to C18G U45C C96U C116A U130C, the “polymerase ribozyme fitness (log ratio)” value falls from -4.14 to at most -4.2.

Compared with A19U A21U G86A C103U, A19U A21G U45G U56A G92U is higher in “polymerase ribozyme fitness (log ratio)” value: -2.31 for the first, -1.94 for the second.

Compared with A19C A24G C36U C57A U111G A121G, C18G G92U U130G is higher in “polymerase ribozyme fitness (log ratio)” value: at most -4.2 for the first, -4.01 for the second.

Compared with C18U C132U U135A, C18U C54U C93G A119C is lower in “polymerase ribozyme fitness (log ratio)” value: -2.33 for the first, at most -4.2 for the second.

First: C18U C38U U55C A97U A120C
Second: C18U A29U A30U G70C C149G
The “polymerase ribozyme fitness (log ratio)” value of the first is higher: -1.43 for the first, at most -4.2 for the second.

A19C A39U G84C C93A U148A and A19C A29C U33G C87G C108U U135A U148A cannot be ordered by “polymerase ribozyme fitness (log ratio)” value: at most -4.2 for the first, at most -4.2 for the second.

Compared with A19G U55A, A19G C87G is lower in “polymerase ribozyme fitness (log ratio)” value: -0.576 for the first, at most -4.2 for the second.

Going from C18G C85A U145G A147U to A19G A37U U101G, the “polymerase ribozyme fitness (log ratio)” value falls from -0.193 to -2.14.

Compared with A19C A26C, A19G A28G A60G G86C A107G C118U G141U is lower in “polymerase ribozyme fitness (log ratio)” value: -1.76 for the first, at most -4.2 for the second.

Going from A19C C96U A106G A120C to A19G A22G U31G A41U U44A A60C G81A G83C G84A U146A, the “polymerase ribozyme fitness (log ratio)” value falls from 0.311 to at most -4.2.

Compared with C18U A29U A52C C93A C125G U144A A147U, C18U C93U is higher in “polymerase ribozyme fitness (log ratio)” value: at most -4.2 for the first, -1.73 for the second.

First: C18U C93G
Second: A19G C93A G140A
The “polymerase ribozyme fitness (log ratio)” value of the first is higher: -3.19 for the first, at most -4.2 for the second.

Compared with C18G C76G C85A U145A, C18U A22U U53G C96A is higher in “polymerase ribozyme fitness (log ratio)” value: at most -4.2 for the first, -3.13 for the second.

First: A19C G62U C95U C96A
Second: A19U A30U G62C G65C C96A
The “polymerase ribozyme fitness (log ratio)” value of the first is higher: -2.36 for the first, at most -4.2 for the second.

Compared with A19C C123G, A19G G126C is lower in “polymerase ribozyme fitness (log ratio)” value: 0.921 for the first, 0.693 for the second.

A19C A39U U53G A89U U104G C108A G136A A138C U145A and C18U U61G A91C C93G C96U C99U A147U cannot be ordered by “polymerase ribozyme fitness (log ratio)” value: at most -4.2 for the first, at most -4.2 for the second.

Compared with A19C A41C U148C, C18U G84A U102A C123G is lower in “polymerase ribozyme fitness (log ratio)” value: -1.99 for the first, -2.76 for the second.

Going from A19G C87G G92A U134A to C18U C131A, the “polymerase ribozyme fitness (log ratio)” value rises from at most -4.2 to -2.6.

A19C G46A G62A G94A C95A and C18U G50C G88C C99U cannot be ordered by “polymerase ribozyme fitness (log ratio)” value: at most -4.2 for the first, at most -4.2 for the second.

Compared with A19C A20U C85U G136A, C18U A37C G68A A107U C125A G140C is lower in “polymerase ribozyme fitness (log ratio)” value: -0.21 for the first, at most -4.2 for the second.

First: C18U A37U U144A
Second: A19G C32A G46C C54U G59C A106U G128C
The “polymerase ribozyme fitness (log ratio)” value of the first is higher: -1.92 for the first, at most -4.2 for the second.

Compared with A19C C27U A29C A52C G86C A137G G143U, A19C G83U C87U is higher in “polymerase ribozyme fitness (log ratio)” value: at most -4.2 for the first, -0.445 for the second.

Compared with A19G G50U A73G C85U, A19C C57A C131A is lower in “polymerase ribozyme fitness (log ratio)” value: -0.781 for the first, -2.25 for the second.

Compared with A19G A97U, A19U A20U C85U A142G is lower in “polymerase ribozyme fitness (log ratio)” value: -0.98 for the first, -2.89 for the second.

Going from A19C C54U to A19G U82G G94A C96U A97U G124U, the “polymerase ribozyme fitness (log ratio)” value falls from -0.474 to -2.53.

C18U G42A A73U C95U A98U C103G and A19G A20G A60G C76A A89U C93A cannot be ordered by “polymerase ribozyme fitness (log ratio)” value: at most -4.2 for the first, at most -4.2 for the second.

Compared with C18U A37U U55A G86A, A19C U53A G58A is higher in “polymerase ribozyme fitness (log ratio)” value: -3.67 for the first, 0.679 for the second.

A19G U55A G68A G71A C103U and A19G A26U C85A A97C A119U C123U cannot be ordered by “polymerase ribozyme fitness (log ratio)” value: at most -4.2 for the first, at most -4.2 for the second.

Compared with A19C C51A C75A C93A G117C, A19U A41C G58A C85G is higher in “polymerase ribozyme fitness (log ratio)” value: at most -4.2 for the first, -2.71 for the second.

Going from A19G C57G G84U to A19C U56A G94A C99U U135A U148A U151G, the “polymerase ribozyme fitness (log ratio)” value falls from -2.3 to at most -4.2.

C18U A20U G59A G94A C116G A142G A150G and C18U U56A C85A G124A U135G G136A cannot be ordered by “polymerase ribozyme fitness (log ratio)” value: at most -4.2 for the first, at most -4.2 for the second.

Compared with A19U A21U C85G, A19G C32A A40C U61A C93G A110G is lower in “polymerase ribozyme fitness (log ratio)” value: -2.46 for the first, at most -4.2 for the second.

Going from A19G A30G G42C G50A C85U U109A A120G to A19C U55A A91G, the “polymerase ribozyme fitness (log ratio)” value rises from at most -4.2 to -2.67.

C18U A39G U53C C57G C75A U139G A150C and C18U C38U A39C G92U C103U cannot be ordered by “polymerase ribozyme fitness (log ratio)” value: at most -4.2 for the first, at most -4.2 for the second.

Going from C18U A23U A91U C95G U104C C118A A147U to A19G U109C G141A, the “polymerase ribozyme fitness (log ratio)” value rises from at most -4.2 to -2.85.

First: A19C A107G
Second: C18U A39G U53C
The “polymerase ribozyme fitness (log ratio)” value of the first is lower: -3.75 for the first, -3.19 for the second.
